Experimental data: IntAct's records for PubMed 19461891

B1: Defective in germ line development protein 3 (Caenorhabditis elegans), Q95ZK7-1 (parent)
chain: MGEQSHEKDHDEAHSYNPFVRSAVEYDADTRLQMAENAASARKLFVSSALKDIIVNPENFYHDFQQSAQMAEDANQRRQVSYNTKREAHIHQLKAQGLPLPSNIPMIEINPTRVTLNMEFESQYYSLMTSDNGDHENVASIMAETNTLIQLPDRSVGGTTPDPFAQQVTITGYFGDVDRARMLMRRNCHFTVFMALSKMKMPLHELQAHVRQNPIQNVEMSFVDAPEKNGIVTTYLRITAREKNQHELIEAAKRLNEILFRESPAPENNFTLHFTLSTYYVDQVLGSSSTAQLMPVIERETTTIISYPCYNNRNETRGNIYEIKVVGNIDNVLKARRYIMDLLPISMCFNIKNTDMAEPSRVSDRNIHMIIDESGIILKMTPSVYEPADLLSGEVPLNCASLRSKEFNIKKLYTAYQKVLSKKFDFIAPQPNDYDNSIWHHSLPANFLKNFNMPCRGELSDGSNGRRHRSSSIASSRSKHSYMSKGKQFSESSGGPSRSHTRVSSFSENSSTVPIMQFPTPHFAPPMLTPHHHMLKYVYLQQHQQAQTFLKGAAGLHPGTHIMFPPPIIVDGSFVSALPFADPVVFDGFPYVHGLFPVNEAEQHRNHRESSPSLRSTQEIRKPSRNMGNRPSSSTGSYYPSTTPRQRVYEQVREDDLRSHIGSRRTSVNGDDQNVESMHDQGYERQYPRQHQRLQKDDQQRWKTGSRGDIHSSRTINVHRDVRNSNEYDFHVGNSGPAKRSPSLEQVQLQMTHHLKLKSNDVDLDHEKLYMHESPHNDSDTTVSASGFGNDLMDGDFVQRFLSNANINESGRRPRTVSCFTEKDGQSARYIDSDGAYSVVDHASTHQSRSYDSFRKVGDNGVTKTILEPRARVEKDYGKISLEHKTKYSNEYGDEEKSAENDTSSLGSRQYRIDPMKLIASVRESSEQLPRIHERQFSDVLNEKEKEIADKSIESTVTQDLSLDETSTY
partner: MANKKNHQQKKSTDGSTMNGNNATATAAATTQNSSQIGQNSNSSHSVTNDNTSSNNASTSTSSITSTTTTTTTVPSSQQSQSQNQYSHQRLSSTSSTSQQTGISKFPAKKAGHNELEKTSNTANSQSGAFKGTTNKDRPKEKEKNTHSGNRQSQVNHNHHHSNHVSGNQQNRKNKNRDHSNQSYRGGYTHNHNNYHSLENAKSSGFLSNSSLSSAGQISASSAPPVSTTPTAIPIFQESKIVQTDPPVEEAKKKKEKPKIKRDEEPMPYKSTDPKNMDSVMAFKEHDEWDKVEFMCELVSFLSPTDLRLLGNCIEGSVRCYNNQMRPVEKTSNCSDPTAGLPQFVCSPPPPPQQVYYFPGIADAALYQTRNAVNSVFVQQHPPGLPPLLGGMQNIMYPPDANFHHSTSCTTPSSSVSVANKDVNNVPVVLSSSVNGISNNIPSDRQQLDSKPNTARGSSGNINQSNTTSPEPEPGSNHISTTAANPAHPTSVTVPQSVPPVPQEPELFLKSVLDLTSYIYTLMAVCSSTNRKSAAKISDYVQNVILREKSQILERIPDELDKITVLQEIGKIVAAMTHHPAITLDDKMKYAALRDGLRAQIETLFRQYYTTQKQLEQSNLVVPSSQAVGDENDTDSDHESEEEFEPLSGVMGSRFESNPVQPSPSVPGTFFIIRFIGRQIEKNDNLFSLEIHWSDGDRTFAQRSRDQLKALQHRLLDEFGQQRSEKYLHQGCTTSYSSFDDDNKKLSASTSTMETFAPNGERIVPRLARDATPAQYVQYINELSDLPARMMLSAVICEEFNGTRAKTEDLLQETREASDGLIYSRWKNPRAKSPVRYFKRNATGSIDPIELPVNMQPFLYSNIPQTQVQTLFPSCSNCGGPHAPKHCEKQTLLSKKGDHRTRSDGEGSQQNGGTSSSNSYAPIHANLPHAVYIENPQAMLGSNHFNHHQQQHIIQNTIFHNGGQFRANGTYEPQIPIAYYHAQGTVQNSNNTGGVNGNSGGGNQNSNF

Variants of: B1
Conditions: with gls-1, Q8I4M5-3

| effect of a mutation on the interaction | Variant |
| --- | --- |
| disrupting interaction strength | G327R |
